Experimental data published in the DeepSol protein solubility set.

Assay: soluble on expression in E. coli; label from the status in PepcDB or PDB records

| Sequence | soluble on expression in E. coli |
| --- | --- |
| DKIGTAVLQGVMQGRRAKDVAKEIEQITDATASRATFIARDQTSKMNAAFNEIRQVGLGIESYTWQTSGDERVREDHAAHDGTVFRWSDPPATGHPGQDYNCRCVAIPNVTLEGP | not soluble |
| DLHEILHEAVPLDANEREILELKEDAFAQRRREIETRLRAANGKLADAIAKNPAWSPEVEAATQEVERAAGDLQRATLVHVFEMRAGLKPEHRPAYDRVLIDALRRGSQ | soluble |
| DPTKNLRSVDLAVVNEDEGATRNGEFNRYGDKVVKGLLDKDYLAFKQVSADEAAKGLDNGTYLFTVTIPEKFSENVNTLLADQPTKPEIILSYNDFNGTNGSVLTGGLVPKIQQAVSASISESYATKLVNGVNKLGGGLERAADGSAKLEEGSGKLKDGLAKGVAGSQKLNDGSHQLAEGTAKLADGTGQLADGASRLAAGTAKLGNGAAQIDDGVGTLVNTLIPVLTTAQAAAPQLQQAADALRAVGMVAEADRIQDLATKFDANNPDNQVNKLNKLKNGTATLRYMLSDPSSEYYGGVLKLSDGVAKAHDGAVRLNDGAHRLADGTAQLANGTQQLYDGAGRLNEGANTLATKLDEGAKNAPKVPNAEASAKQISVPIVYKENNANPVQTVVDSNDPTAKKLNGGAS | not soluble |
| DQRQAEKALLESEQKFRSFIETTSEGFLILTPQLDINFSNTAICQLAGYSLTEMQGKSVLVFVTSESRKQLRQQLIMARSHSHLAAELTLMHKNGHHVFIRYKATVMADGNGFFTYITDIT | not soluble |
| DRFSTAVLALSLFQGAYTAEIFRAGLNSIPKGQFEAAQTLGLSPFYTYKDVILPQVLQRTLPPLTNEVVSLIKNSSIVSVMAIFDLTTQARNIVSETAMPFE | not soluble |
| DSDCHFAEQRDFSSQWFRVDDGGEIPDEQELHWHLEYLQQNPNAARDLLHALLPDKDASQGDWRCSYRLLQSADLMPLVFDYRWLMNGQFAFYLVDSASQENGGVATTLLVRALFDDYLRNLKSFSADLKDMVNIMEKGIECSDCAGAVK | not soluble |
| DSQDWHDWIDQALTERRLLLYFQPVVDCLDTQRVLHHKVLARLLDPQATAIAAGRFLPWIERFGWAARMDLAMLEQSLEHLRRHPRPLALSLSAASVRNAQTFAPLLALLKAHPQEARQLTLELDERHLPAAAELERLSQVLRELGCGLGLQHFGGRFSLIGNLTHLGLAYLKLDGCYLHAVDREGDKRLFIEAVYRTTHSIDLPLIAEQVETLGELEVLREMGLRGAMGRLFGSPAPWSGDA | soluble |
| DTEGKAHNEQAESIELEGDRIYKITLKDGLKFSDGTPIKAENFVKTWNYAVANDQLNASFFEGIKGFKEGVKELEGLKVVDDKTFTVELDQPESDFPSRLGYSAFFALPDIAFDDMAAFGENPVSSGPYKLAEWNHNESLTIVPNEEYQGDRKAKNDGVKFVFYASQDAAYSDLLAGNLDVLDQVPDSAFATYKDELGDRAVNQPAAVFQSFTIPEKLEHFSGEEGALRRAAISHAINREEITKTIFQDTRTPAKDFSSPVVDGYKEGLKGSEVVKFDSAKAKELWAQADKISKFTGEFTIAYNSDGGHQSWVDAVANQLKNNLGIAASGKPYPDFKSLRDEVTNHTITGAFRTGWQGDYPLLGNFLQPLYATNASSNDGQYSNPAFDAKLEEAAGAKSVEEGLKLYQEAEEILFKDLPAIPLWYANVNGGSSDKVSNVTFNWKSVAAYEQITKG | not soluble |
| DTVANASGPLMVEIVKTPGSALGISLTTTSLRNKSVITIDRIKPASVVDRSGALHPGDHILSIDGTSMEHCSLLEATKLLASISEKVRLEILPVPQSQRPLRPS | soluble |
| DTVKIDANVNYQIIQGFGGMSGVGWINDLTTEQINTAYGSGVGQIGLSIMRVRIDPDSSKWNIQLPSARQAVSLGAKIMATPWSPPAYMKSNNSLINGGRLLPANYSAYTSHLLDFSKYMQTNGAPLYAISIQNEPDWKPDYESCEWSGDEFKSYLKSQGSKFGSLKVIVAESLGFNPALTDPVLKDSDASKYVSIIGGHLYGTTPKPYPLAQNAGKQLWMTEHYVDSKQSANNWTSAIEVGTELNASMVSNYSAYVWWYIRRSYGLLTEDGKVSKRGYVMSQYARFVRPGALRIQATENPQSNVHLTAYKNTDGKMVIVAVNTNDSDQMLSLNISNANVTKFEKYSTSASLNVEYGGSSQVDSSGKATVWLNPLSVTTFVSK | soluble |
| DVNFILTFPTGYGKTTLSLEIVRMIDLKPTQNFSRLIHVVPTRSLAKDIQNSACERGLGFAVQYSFTPSHIKSPLFLAKFIITTYDSFLLNLYKASIGEPFSYHGHYDLPRFGIYTSLVHFDEFHLMNEGNSWTSLLGAVRHLSKVGVNMILSSATPSKSVEEELIRMMENRKVVRLAVVNEYGESVKNRNCV | not soluble |
| EALLNDSALQSVPIVVPSRGSKLLGATLKTELTQEEVQQTLVDGFFPQVAITDHPVQRNRGALTQMGLPYAQDAGITRHIAAFLSKQAHAQSGGESAQAQDFNPFANMPGMPGSDAAQSADFIKPTAILFNGGVLKSKLLATRLEDTINKWLIEADAEMAKRLTGVDLDLAVASGAAYYGSVRRGQGVRIRGGIASAYYVGIESAMPAIPGMAPPMEALCVAPFGMEEGSSVDVPSQEFGLIIGQPVNFQFFGSTVRRDDLAGTHLDYWAPEELEELPEIQVTLPVSEGRREGEVVPVTLASRVTELGTLYLEAIAADNGQKWHVEFDVREDAKSDSNEEQ | not soluble |
| EASLTGAGATFPAPVYAKWADTYQKETGNKVNYQGIGSSGGVKQIIANTVDFGASDAPLSDEKLAQEGLFQFPTVIGGVVLAVNIPGLKSGELVLDGKTLGDIYLGKIKKWDDEAIAKLNPGLKLPSQNIAVVRRADGSGTSFVFTSYLAKVNEEWKNNVGTGSTVKWPIGLGGKGNDGIAAFVQRLPGAIGYVEYCYAKQNNLAYTKLISADGKPVSPTEENFANAAKGADWSKTFAQDLTNQKGEDAWPITSTTFILIHKDQKKPEQGTEVLKFFDWAYKTGAKQANDLDYASLPDSVVEQVRAAWKTNIKDSSGKPLY | soluble |
| EAYIGVLIDDLVTKGTNEPYRLLTSRAEYRLLLRHDNADLRLTEKGYEIGLIARERYERFCEKKAQIAAEKKRLESITVKPSKEVNALLEEVGSAPLKEAVQANVFLKRPEVTYEHVAKVIPAPEQELSADVAEQVEIQIKYEGYISKMLQQVERAKKMNDKKIPEDLDYDAINGLATEAKQKLSEVRPLSVGQASRVSGVNPSDISILLVYLE | not soluble |
| ECGHISVSAPIVHLGDPITASCIIKQNCSHLDPEPQILWRLGAELQPGGRQQRLSDGTQESIITLPHLNHTQAFLSCSLNWGNSLQILDQVELRAGYPPAIPHNLSCLMNLTTSSLICQWEPGPETHLPTSFTLKSFKSRGNCQTQGDSILDCVPKDGQSHCSIPRKHLLLYQNMGIWVQAENALGTSMSPQLCLDPMDVVKLEPPMLRTMDPSPEAAPPQAGCLQLSWEPWQPGLHINQKCELRHKPQRGEASWALVGPLPLEALQYELCGLLPATAYTLQIRCIRWPLPGHWSDWSPSLELRTTERAAAPR | soluble |
| EECQVRVGDLTVAKTRGQLTDAAPIGPVTVQALGCNARQVALKADTDNFEQGKFFLISDNNRDKLYVNIRPMDNSAWTTDNGVFYKNDVGSWGGTIGIYVDGQQTNTPPGNYTLTLTGGYWAKDNKQGFTPSGTTGTTKLTVT | soluble |
| EEFPFALGVQTLPQTCDEPKAHTSFQISLSVSYTGSRSASNMAIVDVKMVSGFIPLKPTVKMLERSNHVSRTEVSSNHVLIYLDKVSNQTLSLFFTVLQDVPVRDLKPAIVKVYDYYETDEFAIAEYNAPCSKDLGNA | soluble |
| EEIDCNDKDLFKAVDAALKKYNSQNQSNNQFVLYRITEATKTVGSDTFYSFKYEIKEGDCPVQSGKTWQDCEYKDAAKAATGECTATVGKRSSTKFSVATQTCQITPAEGPVVTAQYDCLGCVHPISTQSPDLEPILRHGIQYFNNNTQHSSLFMLNEVKRAQRQVVAGLNFRMTYSIVQTNCSKENFLFLTPDCKSLWNGDTGECTDNAYIDIQLRIASFSQNCDIYPGKDFVQPPTKICVGCPRDIPTNSPELEETLTHTITKLNAENNATFYFKIDNVKKARVQVVAGKKYFIDFVARETTCSKESNEELTESCETKKLGQSLDCNAEVYVVPWEKKIYPTVNCQPLGMISLMKRPPGFSPFRSSRIGEIKEETTSHLRSCEYKGRPPKAGAEPASEREVS | not soluble |
| EEKLVKIAGFGGQGVLSMGLTLAEAACRDQKYVSWYPSYGPEQRGGTSNCSVIISGHEIGSPVVYSPGVLIALNKPSLENFAKDVKTGGTIIYDENIGDFEIPNGVTAIKVPASKIATEMGVSRAANTVMLGVLSALGYTGLSESVFVGAIEQTFSKKPKLIPINVEILNAGISWAKE | not soluble |
| EIILNASAMFNHSNAKLALSIDKKLRKVIVTPDMHRVHHSVMVKETHSNFGFFLSVWDRWFGTYRAQPALGHNDVVIGVPEIREASEQRLDKLLTQPFRYREGKGKNVD | not soluble |
| EKIAHMAVSRGNGARLLVDGEATFAALFAALDAARHYVLIQFYIVRDDDLGLELRDRLIAAAQRGVKVRFLTDAIGSYGLSDNYIEDLRAAGIDIANPRKQRGPNTRFQVNYRNHRKTVVVDGQTGFIGGHNVGVEYLGQDPVMGRWRDTHVQITGPSVLQLQLVFAEDWHWARGEDLLDLLSWETRLDPQDADALIVATGPGDRTESGAMM | not soluble |
| EKMTRDEIEYMLTNSEETLEAEEIEMLQGIFSLDEMMAREVMVPRTDAFMIDINNDAQSNIEGILSQNFSRVPVFDDDKDRVVGVLHTKRLLEAGFKTGFDTIDLRKILQEPLFVPETIFVDDLLKALRNTQNQMAILLDEYGGVAGLVTLEDLLEEIVGEID | soluble |
| ELGRLEDPAFTIKDAMIVATYPGATSKEVEEELTYPLEKEIRKLPYIDRITSTSSNGMSQIMVSMKMDYGPDELPQIWDEMRRKINDLQPTLPQGVQSLQIIDDFGDVYGVMLMLTGDDYDYVELKRYADHLRREIELVDGVGKVDIAGDQQEMLFVEISLDRLASLNLDMNVVSGLLNQQNNVVSAGEVMVNGESLVIRPSGTLNTVQALENLIIHGRDTGNLIRLKDVATITRGIQEKPGNMILFNGKKAINIGISFASGVNVVEVGERLNAELSSLESIKPAGLDMSYFYNQAQEVDDSVK | soluble |
| EMVKLQSVITGSMQTGRSRARIEQAVVALLTYVEEETDAFQILVRDMKAGQDHSYSTLLNDAVEQVSHILGQAFERSGLNPKNATLYAQALVGMVSMTAQWWLDRRKEPNAATKEQVAAHIVNLCWNGLAGMEANPQLSNIDSPPETLGAH | not soluble |
| ENYLNVKKIENEKNLQISEMSLQYDYYMKQSNDMENIRKISHDIKNHLEALRGNVDYQQKQEYIDGIESKLDIYQSYYKTGNAFLNNLLHAKRLEALEKKIEFKVFADFTPFKRVKNEDLCVIVSNTIDNALRECQLMKADNPKIECLVQLKARKIKGFLSIICENSLRESQAEALRGNLVMETSKEDKKNHGFGVKNIKRVVREYGGEVSFNVVDDMFSVSILIPIEV | not soluble |
| EPPADGGQIKGVGSGRCLDVPDASTSDGTQLQLWDCHSGTNQQWAATDAGELRVYGDKCLDAAGTSNGSKVQIYSCWGGDNQKWRLNSDGSVVGVQSGLCLDAVGNGTANGTLIQLYTCSNGSNQRWTRT | soluble |
